Results reported in US20080274114A1 (APPLIED MOLECULAR EVOLUTION, published 2008).

Experiments:
[1] = biological target: T1, soluble EGFR (sEGFR), amino acids 1-619 of mature human EGFR with (Gly)4Ser linker and (His)6 tag (human, UniProt P00533 25-643, biotinylated with Sulfo-NHS-LC-Biotin in the filter lift and the capture ELISA); test: capture filter lift and capture ELISA, biotinylated sEGFR
T1 construct: range 1-619; Expressed in CHO-K1 cells; also called biotinylated sEGFR; B-sEGFR
Method: Briefly, a filter is coated with a capture reagent (goat anti-human kappa chain antibody), then the coated filter is placed on a plate with phage plaques, from phage which are expressing Fabs. The filter is incubated with the plaques, then the filter is incubated with biotinylated sEGFR, and bound biotinylated sEGFR is detected by binding of Neutravidin-AP and incubation with the detectable alkaline phosphatase substrate.
The filter is submerged for 15 min. The filter is washed three times in PBS. The filter is blocked in 1% BSA in PBS for 1 hour. The filter is washed three times in PBS. The filter is air dried for 10 min. The filter is carefully laid onto phage plate and incubated overnight at 22° C. The filter is carefully lifted off and washed briefly in PBS. The filter is incubated with Biotinylated antigen at 1/1000 dilution into 3% dry milk, PBS, 0.05% Tween 20 for 1 hour at room temperature. The filter is vacuum washed with PBS, 0.05% Tween 20 three times. The filter is incubated with Neutravidin-AP 1/1000 in PBS, 0.05% Tween 20 for 30 min. at room temperature. The filter is vacuum washed with PBS, 0.05% Tween 20 three times. The filter is developed in 10 mls AP substrate (Nitro-blue tetrazolium, 5-Bromo-4-chloro-indolyl phosphate, Pierce, Rockford, Ill.). Plaques are selected based on blue color intensity.
Capture ELISA is used as an assay to detect Fabs which bind sEGFR as follows. […] The wells are washed 3 times with PBS-Tween 20 (0.05%). the wells are blocked with 50 μL/well 1% BSA in PBS-Tween for 1 hour at RT. The wells are washed 3 times with PBS-Tween. […] The plate is incubated at RT for 2 hours. The plate is wash 3 times with PBS-Tween. 50 μL/well biotinylated-sEGFR diluted 1/1000 in PBS-Tween are added and the plate is incubated at RT for 1 hour. The plate is washed 3 times with PBS-Tween.

[2] = biological target: T1, soluble EGFR (sEGFR), amino acids 1-619 …; test: capture ELISA: binder captured on goat anti-human kappa at varied concentration, biotinylated sEGFR (1/1000) detected with Neutravidin-AP, OD405
Method: Capture ELISA is used as an assay to detect Fabs which bind sEGFR as follows. […] The wells are washed 3 times with PBS-Tween 20 (0.05%). the wells are blocked with 50 μL/well 1% BSA in PBS-Tween for 1 hour at RT. The wells are washed 3 times with PBS-Tween. […] The plate is incubated at RT for 2 hours. The plate is wash 3 times with PBS-Tween. 50 μL/well biotinylated-sEGFR diluted 1/1000 in PBS-Tween are added and the plate is incubated at RT for 1 hour. The plate is washed 3 times with PBS-Tween. 50 μL/well Neutravidin-Alkaline Phosphatase (Neutravidin-AP; Pierce, Rockford, Ill.) diluted 1/1000 in PBS-Tween are added and incubated for 30 min. at RT. The plate is washed 3 times with PBS-Tween. 150 μL/well pNPP substrate (Sigma) is added and incubated at 37° C. until color develops.

[3] = biological target: T1, soluble EGFR (sEGFR), amino acids 1-619 …; test: KinExA, calculated as Kd x kon
Method: (§1) Binding affinity measurements for full-length monoclonal antibodies of the invention are determined using a Sapidyne KINEXA assay. NHS-activated fast-flow sepharose beads (GE Healthcare) are pre-coated with antigen (50 μg anti-EGFR antibody per ml of beads) and blocked with 10 mg/ml BSA in 1 M Tris-HCl, pH 8.0. […] To determine the free antibody present at equilibrium, each sample is passed through the sEGFR-coated beads. The amount of bead-bound antibody is then quantified by passing a solution of fluorescent (Cy5) labeled goat anti-human Fc antibody (Jackson Immuno Research) diluted 1:4000 in running buffer over the beads. The measured fluorescence signal is proportional to the concentration of free antibody at equilibrium. Each concentration of sEGFR is measured in duplicate. The equilibrium dissociation constant (KD) is obtained from non-linear regression of the competition curves using a multiple-curve, one-site homogeneous binding model (KINEXA software).
(§2) The association rate constant (kₒₙ) for sEGFR binding is also determined using a Sapidyne KINEXA assay. Two pM antibody is mixed with 20 pM sEGFR using the same conditions as described above. At various times, samples are probed for free antibody using the conditions described above for equilibrium binding, and then the resulting time dependence is fit using the KINEXA software to determine the association rate (kₒₙ). The dissociation rate constant (koff) is calculated using the expression koff=Kd×kₒₙ.

[4] = biological target: T1, soluble EGFR (sEGFR), amino acids 1-619 …; test: KinExA, full-length antibody with sEGFR in solution
Method: as §1, §2

[5] = biological target: T1, soluble EGFR (sEGFR), amino acids 1-619 …; test: KinExA, equilibrium, full-length antibody with sEGFR in solution
Method: as §1

| Binder | binding result [1] | EC50 (read off the curve) [2] | koff [3] | kon [4] | Kd [5] |
| --- | --- | --- | --- | --- | --- |
| Fab 4.14 (Fab, V domains shown, Fab) VH: QVQLQESGPGLVKPSETLSLTCTVSGFSLTNWDVHWIRQPPGKGLEWIGNIWSGGNTDYNTPFTSRVTISVDTSKNQFSLKLSSVTAADTAVYYCARALDYYDYDYAYWGQGTMVTVSS VL: EIVLTQSPDFQSVTPKEKVTITCRASYSIGTNIHWYQQKPDQSPKLLIKYASESISGVPSRFSGSGSGTDFTLTINSLEAEDAATYYCQQNNDWPTTFGGGTKVEIK | binds |  |  |  |  |
| Fab 4.21 (Fab, V domains shown, Fab) VH: QVQLQESGPGLVKPSETLSLTCTVSGFSLTNWDVHWIRQPPGKGLEWIGVIWSGGNTDYNTPFTSRVTISVDTSKNQFSLKLSSVTAADTAVYYCARALDYYDYDFAYWGQGTMVTVSS VL: EIVLTQSPDFQSVTPKEKVTITCRASYSIGTNIHWYQQKPDQSPKLLIKYASESISGVPSRFSGSGSGTDFTLTINSLEAEDAATYYCQQNNDWPTSFGGGTKVEIK |  | ~0.02 µg/mL |  |  |  |
| full-length monoclonal antibody VH4.15 (antibody, V domains shown, Full-length antibody with human Fc) VH: QVQLQESGPGLVKPSETLSLTCTVSGFSLTNYGVHWIRQPPGKGLEWIGNIWSGGNTDYNTPFTSRVTISVDTSKNQFSLKLSSVTAADTAVYYCARALDYYDYDYAYWGQGTMVTVSS VL: EIVLTQSPDFQSVTPKEKVTITCRASYSIGTNIHWYQQKPDQSPKLLIKYASESISGVPSRFSGSGSGTDFTLTINSLEAEDAATYYCQQNNEWPTSFGGGTKVEIK |  |  | 1.75e-07 s⁻¹ | 1.46e+07 M⁻¹ s⁻¹ | 0.012 pM |
| full-length monoclonal antibody VH4.21 (antibody, V domains shown, Full-length antibody with human Fc) VH: QVQLQESGPGLVKPSETLSLTCTVSGFSLTNWDVHWIRQPPGKGLEWIGVIWSGGNTDYNTPFTSRVTISVDTSKNQFSLKLSSVTAADTAVYYCARALDYYDYDFAYWGQGTMVTVSS VL: EIVLTQSPDFQSVTPKEKVTITCRASYSIGTNIHWYQQKPDQSPKLLIKYASESISGVPSRFSGSGSGTDFTLTINSLEAEDAATYYCQQNNDWPTSFGGGTKVEIK |  |  | 2.02e-06 s⁻¹ | 1.07e+07 M⁻¹ s⁻¹ | 0.188 pM |
| Fab 2.38 (Fab, V domains shown, Fab) VH: QVTLKESGPVLVKPTETLTLTCTVSGFSLSNWGVHWIRQPPGKALEWLAVIWSGGNTDYNTPFDSRLTISKDTSKSQVVLTMTNMDPVDTATYYCARALDYYDYDFAYWGQGTMVTVSS VL: EIVLTQSPDFQSVTPKEKVTITCRASYSIGTNIHWYQQKPDQSPKLLIKYASESISGVPSRFSGSGSGTDFTLTINSLEAEDAATYYCQQNNEWPTSFGGGTKVEIK | binds |  |  |  |  |
| Fab 2.II.3 (Fab, V domains shown, Fab; also called 2.11.3) VH: QVTLKESGPVLVKPTETLTLTCTVSGFSLSNWDVHWIRQPPGKALEWLAVIWSGGNTDYNTPFTSRLTISKDTSKSQVVLTMTNMDPVDTATYYCARALDYYDYDFAYWGQGTMVTVSS VL: EIVLTQSPDFQSVTPKEKVTITCRASYSIGTNIHWYQQKPDQSPKLLIKYASESISGVPSRFSGSGSGTDFTLTINSLEAEDAATYYCQQNNDWPTTFGGGTKVEIK | binds |  |  |  |  |
| full-length monoclonal antibody VH2.69 (antibody, V domains shown, Full-length antibody with human Fc) VH: QVTLKESGPVLVKPTETLTLTCTVSGFSLSNWDVHWIRQPPGKALEWLAVIWSGGNTDYNTPFASRLTISKDTSKSQVVLTMTNMDPVDTATYYCARALDYYDYNFAYWGQGTMVTVSS VL: EIVLTQSPDFQSVTPKEKVTITCRASYSIGTNIHWYQQKPDQSPKLLIKYASESISGVPSRFSGSGSGTDFTLTINSLEAEDAATYYCQQNNNWPTSFGGGTKVEIK |  |  | 6.51e-06 s⁻¹ | 9.64e+06 M⁻¹ s⁻¹ | 0.68 pM |
| full-length monoclonal antibody VH2.87 (antibody, V domains shown, Full-length antibody with human Fc) VH: QVTLKESGPVLVKPTETLTLTCTVSGFSLSNWDVHWIRQPPGKALEWLAVIWSGGATDYNTPFNSRLTISKDTSKSQVVLTMTNMDPVDTATYYCARALDYYDYNFAYWGQGTMVTVSS VL: EIVLTQSPDFQSVTPKEKVTITCRASYSIGTNIHWYQQKPDQSPKLLIKYASESISGVPSRFSGSGSGTDFTLTINSLEAEDAATYYCQQNNNWPTTFGGGTKVEIK |  |  |  |  | 0.215 pM |
